For 67 sequences, protein stability index results are on record in the supplement of paper PMC10724198.

The data set relates to Saccharomyces cerevisiae. The data set can be described thus: protein stability index of tFT-peptide fusion (C-terminal peptide) (PSI (0-1 scale)); higher = more stable (slower turnover). Particulars: temperature: 30 C. The protocol: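 MPS profiling in S. cerevisiae of the yeast C-terminome library: the last 12 aa of each annotated ORF are fused to the C-terminus of a sfGFP-mCherry timer, after a GGGS linker. Cells are FACS-sorted into 8 mCherry/sfGFP bins and deep-sequenced. PSI runs from 0 (unstable) to 1 (stable); wild type and das1Δ backgrounds, two technical replicates each.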

Where [1] appears, read: genetic background: das1 deletion.

± gives the standard deviation of the averaged measurements.

ILKKNPDYREEE [RPN1 C-terminal 12 aa]: the protein stability index is, setting by setting: under setting [1], 0.696 ± 0.0054; (genetic background: wild type) 0.7029 ± 0.0058.

For ILTLVETLSEQE [VMA22 C-terminal 12 aa], the protein stability index reads like this: under setting [1], 0.704 ± 0.009; (genetic background: wild type) 0.7049 ± 0.0056.

As for INDKYKSNRTDS [ATG2 C-terminal 12 aa], the protein stability index was found to be 0.697 ± 0.022 under setting [1] and 0.7162 ± 0.00084 (genetic background: wild type).

Consider INGIIDPSELSD [ALO1 C-terminal 12 aa], for which the protein stability index by setting is: under setting [1], 0.69 ± 0.029; (genetic background: wild type) 0.68 ± 0.0073.

INIVVDMLASQH [RMD1 C-terminal 12 aa]: the protein stability index reads like this: under setting [1], 0.606 ± 0.025; (genetic background: wild type) 0.591 ± 0.011.

In the case of IPLVISYCISEE [ATX2 C-terminal 12 aa], the protein stability index under setting [1] stood at 0.575 ± 0.013 and the protein stability index (genetic background: wild type) amounted to 0.596 ± 0.024.

On to IPNIFGKFTVTS [YKL091C C-terminal 12 aa], for which the protein stability index under setting [1] was determined as 0.697 ± 0.0085 and the protein stability index (genetic background: wild type) is 0.683 ± 0.013.

IQAMLKSLDSLK [SNL1 C-terminal 12 aa]: the protein stability index is, setting by setting: under setting [1], 0.691 ± 0.034; (genetic background: wild type) 0.66 ± 0.03.

As to IQEDSPVMDNNT [FAP1 C-terminal 12 aa], the protein stability index stood at 0.722 ± 0.041 under setting [1] and 0.674 ± 0.036 (genetic background: wild type).

IQVVKSKVLNIE [YDR248C C-terminal 12 aa] returned a protein stability index under setting [1] of 0.691 ± 0.028 and a protein stability index (genetic background: wild type) of 0.653 ± 0.016.

On to IRSLPLPFPHMD [MIG1 C-terminal 12 aa], for which the protein stability index under setting [1] was found to be 0.723 ± 0.0091 and the protein stability index (genetic background: wild type) stood at 0.757 ± 0.053.

As to IVNVMFCLVRGF [DSC3 C-terminal 12 aa], the protein stability index is, setting by setting: under setting [1], 0.42 ± 0.021; (genetic background: wild type) 0.404 ± 0.03.

For the sequence IVTKMDLLSYLA [CYS4 C-terminal 12 aa], the protein stability index by setting is: under setting [1], 0.674 ± 0.013; (genetic background: wild type) 0.478 ± 0.0082.

Regarding IWCAPTVDARPI [NIT1 C-terminal 12 aa], the protein stability index was 0.7229 ± 0.0014 under setting [1] and 0.6998 ± 0.0015 (genetic background: wild type).

For the sequence IYENDPNTKKNN [ERG3 C-terminal 12 aa], the protein stability index is 0.736 ± 0.022 under setting [1] and 0.72 ± 0.049 (genetic background: wild type).

As for KAASLSLKSTKY [PRP5 C-terminal 12 aa], the protein stability index is 0.71161 ± 0.00019 under setting [1] and 0.673 ± 0.013 (genetic background: wild type).

In the case of KADIACAGKQLI [YHL042W C-terminal 12 aa], the protein stability index was found to be 0.676 ± 0.0096 under setting [1] and 0.698 ± 0.0097 (genetic background: wild type).

Take KADNWKCKIQSA [GDA1 C-terminal 12 aa]: the protein stability index under setting [1] came out at 0.69 ± 0.018 and the protein stability index (genetic background: wild type) is 0.641 ± 0.011.

KAERCQYRLVTA [YCR025C C-terminal 12 aa]: the protein stability index is, setting by setting: under setting [1], 0.475 ± 0.031; (genetic background: wild type) 0.508 ± 0.012.

For the sequence KAFFISKTLPCI [YLR112W C-terminal 12 aa], the protein stability index came to 0.7141 ± 0.0031 under setting [1] and 0.766 ± 0.07 (genetic background: wild type).

Take KAMILTSYRYLE [CLP1 C-terminal 12 aa]: the protein stability index runs as follows: under setting [1], 0.675 ± 0.035; (genetic background: wild type) 0.677 ± 0.056.

With KCVNCGHRWKEN [RPC11 C-terminal 12 aa], the protein stability index came to 0.708 ± 0.012 under setting [1] and 0.616 ± 0.02 (genetic background: wild type).

In the case of KDFQVNKEIKPY [SIR4 C-terminal 12 aa], the protein stability index was 0.713 ± 0.052 under setting [1] and 0.7378 ± 0.00099 (genetic background: wild type).

Turning to KDGDVVYDNGFM [CHS7 C-terminal 12 aa], the protein stability index under setting [1] turned out to be 0.7085 ± 0.007 and the protein stability index (genetic background: wild type) worked out at 0.692 ± 0.01.

Take KDINLSEGNENE [URA8 C-terminal 12 aa]: the protein stability index reads like this: under setting [1], 0.6774 ± 0.005; (genetic background: wild type) 0.666 ± 0.067.

Consider KDKKKDKSNSSI [HMO1 C-terminal 12 aa], for which the protein stability index worked out at 0.7022 ± 0.0049 under setting [1] and 0.691 ± 0.052 (genetic background: wild type).

For KDSIKLLDKARL [MSS2 C-terminal 12 aa], the protein stability index reads like this: under setting [1], 0.774 ± 0.021; (genetic background: wild type) 0.781 ± 0.085.

KDVIEEALSRFG [UTP7 C-terminal 12 aa]: the protein stability index runs as follows: under setting [1], 0.704 ± 0.0086; (genetic background: wild type) 0.677 ± 0.027.

Take KEKSESLQEEIN [YET3 C-terminal 12 aa]: the protein stability index is, setting by setting: under setting [1], 0.691 ± 0.0081; (genetic background: wild type) 0.71 ± 0.032.

As for KFDKALYKKTTG [YMR206W C-terminal 12 aa], the protein stability index is 0.712 ± 0.038 under setting [1] and 0.669 ± 0.03 (genetic background: wild type).

As to KFKIQNILNSTF [SIP4 C-terminal 12 aa], the protein stability index was 0.714 ± 0.011 under setting [1] and 0.711 ± 0.0095 (genetic background: wild type).

In the case of KGLFWDPACVIA [MFA2 C-terminal 12 aa], the protein stability index stood at 0.731 ± 0.022 under setting [1] and 0.728 ± 0.029 (genetic background: wild type).

Regarding KGLQTVVVEEDA [RPL31A C-terminal 12 aa], the protein stability index is, setting by setting: under setting [1], 0.6888 ± 0.0012; (genetic background: wild type) 0.683 ± 0.0082.

As to KHASELSSNSKF [CTA1 C-terminal 12 aa], the protein stability index reads like this: under setting [1], 0.702 ± 0.029; (genetic background: wild type) 0.681 ± 0.048.

On to KHDVLSTLPHNN [SKO1 C-terminal 12 aa], for which the protein stability index worked out at 0.7043 ± 0.0056 under setting [1] and 0.687 ± 0.011 (genetic background: wild type).

Take “KHKNILLFNNNT [YAL068W-A C-terminal 12 aa]”: the protein stability index by setting is: under setting [1], 0.699 ± 0.011; (genetic background: wild type) 0.686 ± 0.017.

As for KHVMMDMQQPSQ [MRPS17 C-terminal 12 aa], the protein stability index by setting is: under setting [1], 0.699 ± 0.022; (genetic background: wild type) 0.674 ± 0.027.

The sequence “KILVFDKNLMNR [YLR154W-E C-terminal 12 aa]” had a protein stability index under setting [1] of 0.699 ± 0.0098 and a protein stability index (genetic background: wild type) of 0.688 ± 0.019.

With KKDFNEDDSLFG [VPS55 C-terminal 12 aa], the protein stability index by setting is: under setting [1], 0.722 ± 0.013; (genetic background: wild type) 0.694 ± 0.0072.

The sequence KKKRNKNKKAGK [ETP1 C-terminal 12 aa] came in with a protein stability index under setting [1] of 0.691 ± 0.023 and a protein stability index (genetic background: wild type) of 0.698 ± 0.014.

Turning to KKKSKSSKKVKV [ESF1 C-terminal 12 aa], the protein stability index runs as follows: under setting [1], 0.707 ± 0.017; (genetic background: wild type) 0.653 ± 0.0087.

In the case of KKQLLPSKTVDN [HED1 C-terminal 12 aa], the protein stability index came to 0.688 ± 0.013 under setting [1] and 0.66 ± 0.04 (genetic background: wild type).

With KKRDPITGEVFE [ERG5 C-terminal 12 aa], the protein stability index by setting is: under setting [1], 0.6849 ± 0.0021; (genetic background: wild type) 0.667 ± 0.016.

Take KLDVDDEENEGF [MRD1 C-terminal 12 aa]: the protein stability index turned out to be 0.684 ± 0.029 under setting [1] and 0.653 ± 0.011 (genetic background: wild type).

As to KLENESLPNLSG [TRI1 C-terminal 12 aa], the protein stability index reads like this: under setting [1], 0.691 ± 0.013; (genetic background: wild type) 0.685 ± 0.016.

As for KNEELSKKHFSK [ROK1 C-terminal 12 aa], the protein stability index by setting is: under setting [1], 0.718 ± 0.013; (genetic background: wild type) 0.74 ± 0.12.

Regarding KPPKNKYKVVRR [SEC65 C-terminal 12 aa], the protein stability index was found to be 0.714 ± 0.03 under setting [1] and 0.681 ± 0.0014 (genetic background: wild type).

As for KQKDKEKNALLL [YBR113W C-terminal 12 aa], the protein stability index by setting is: under setting [1], 0.689 ± 0.016; (genetic background: wild type) 0.6802 ± 0.0029.

Regarding KRKRRKVRARSK [RPL41A C-terminal 12 aa], the protein stability index reads like this: under setting [1], 0.7678 ± 0.006; (genetic background: wild type) 0.764 ± 0.066.

Consider KSASSSPAPKDT [TRM10 C-terminal 12 aa], for which the protein stability index by setting is: under setting [1], 0.693 ± 0.013; (genetic background: wild type) 0.708 ± 0.011.

Turning to KTDPNEPANDYR [DLD1 C-terminal 12 aa], the protein stability index turned out to be 0.6799 ± 0.00072 under setting [1] and 0.686 ± 0.032 (genetic background: wild type).

As for KTFSYKRPSTFY [RPL20A C-terminal 12 aa], the protein stability index is, setting by setting: under setting [1], 0.6745 ± 0.0049; (genetic background: wild type) 0.732 ± 0.039.

For the sequence KTGKEVRSGKQL [ATX1 C-terminal 12 aa], the protein stability index amounted to 0.689 ± 0.0069 under setting [1] and 0.679 ± 0.022 (genetic background: wild type).

Consider KTYLNFADNGQI [ELM1 C-terminal 12 aa], for which the protein stability index runs as follows: under setting [1], 0.675 ± 0.0079; (genetic background: wild type) 0.721 ± 0.062.

For KVESSDCSFEFA [VID24 C-terminal 12 aa], the protein stability index under setting [1] came out at 0.6988 ± 0.0069 and the protein stability index (genetic background: wild type) was 0.696 ± 0.011.

KVNENWKRYGYK [FDC1 C-terminal 12 aa]: the protein stability index is, setting by setting: under setting [1], 0.6814 ± 0.0052; (genetic background: wild type) 0.703 ± 0.027.

Regarding KYGIYLKEKTVA [LYS9 C-terminal 12 aa], the protein stability index under setting [1] is 0.663 ± 0.013 and the protein stability index (genetic background: wild type) turned out to be 0.4895 ± 0.0018.

As to “KYILAWLRKVLL [YFL012W-A C-terminal 12 aa]”, the protein stability index under setting [1] stood at 0.651 ± 0.031 and the protein stability index (genetic background: wild type) is 0.456 ± 0.013.

For the sequence LAFYLRRLTAKK [RPS8A C-terminal 12 aa], the protein stability index runs as follows: under setting [1], 0.674 ± 0.041; (genetic background: wild type) 0.657 ± 0.0076.

Consider LCHSSHIPETLK [MSN1 C-terminal 12 aa], for which the protein stability index by setting is: under setting [1], 0.719 ± 0.033; (genetic background: wild type) 0.663 ± 0.042.

In the case of LCKEELKYQAIQ [YMR099C C-terminal 12 aa], the protein stability index was 0.701 ± 0.037 under setting [1] and 0.6649 ± 0.0029 (genetic background: wild type).

LCQHYIGWCPFW [TOR1 C-terminal 12 aa]: the protein stability index is, setting by setting: under setting [1], 0.7144 ± 0.0024; (genetic background: wild type) 0.687 ± 0.011.

Consider LDGSREVGAAKS [UME1 C-terminal 12 aa], for which the protein stability index was found to be 0.682 ± 0.026 under setting [1] and 0.7109 ± 0.0018 (genetic background: wild type).

As to LDKELTDGCKQQ [PEX19 C-terminal 12 aa], the protein stability index under setting [1] came out at 0.7031 ± 0.005 and the protein stability index (genetic background: wild type) is 0.684 ± 0.012.

Take LDKVGKKKGGKK [LRP1 C-terminal 12 aa]: the protein stability index runs as follows: under setting [1], 0.701 ± 0.049; (genetic background: wild type) 0.689 ± 0.025.

As for LDLWRDFLNQAN [IDS2 C-terminal 12 aa], the protein stability index stood at 0.742 ± 0.015 under setting [1] and 0.629 ± 0.029 (genetic background: wild type).

In the case of LDQFEINSDGEE [NCS2 C-terminal 12 aa], the protein stability index stood at 0.691 ± 0.022 under setting [1] and 0.709 ± 0.012 (genetic background: wild type).
